Test results published in publication PMC11318927.

Columns and labels:
[1] = biological target: YY1 cellular transcription factor, endogenous in LCLs (UniProt P25490); assay: co-immunoprecipitation (YY1 IP, EBNA-LP blot, band signal quantified); details: 50% IP lanes; trans-complemented LPKO LCLs; parent: 1
[2] = biological target: YY1 cellular transcription factor, endogenous in LCLs (UniProt P25490); assay: co-immunoprecipitation (FLAG-EBNA-LP IP, YY1 blot, band signal quantified); details: 50% IP lanes; LPKO LCLs (Donor 4) trans-complemented; parent: 1.0

UniProt P25490, sequence (P25490 whole entry): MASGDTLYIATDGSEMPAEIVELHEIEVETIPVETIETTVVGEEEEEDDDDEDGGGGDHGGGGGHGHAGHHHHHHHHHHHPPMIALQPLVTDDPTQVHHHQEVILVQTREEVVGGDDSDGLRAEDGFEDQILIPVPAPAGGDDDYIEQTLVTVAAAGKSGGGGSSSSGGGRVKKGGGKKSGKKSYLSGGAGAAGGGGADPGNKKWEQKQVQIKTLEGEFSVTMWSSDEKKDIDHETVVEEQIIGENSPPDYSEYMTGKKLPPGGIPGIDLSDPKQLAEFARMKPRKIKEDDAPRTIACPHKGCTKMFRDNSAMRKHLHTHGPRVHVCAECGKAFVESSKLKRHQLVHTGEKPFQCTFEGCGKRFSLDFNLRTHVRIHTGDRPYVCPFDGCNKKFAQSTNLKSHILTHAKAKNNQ

## FLAG-EBNA-LP wild type (B95-8) with four W domains, from the trans-complementation vector W:L25A; W:L28A; W:L29A (in each of the four W domains); Y:L13A; Y:L17A; Y:L18A
[1]
  response: 0
[2]
  response: 0.01
